Experimental findings from patent US20170320910A1 (published 2017) are described below.

[ ]: non-standard residue; d: D form. Phe(2-Cl) = N[C@@H](Cc1ccccc1Cl)C(=O)O

Test [1] deals with VASP-EVH1 domain (UniProt P50552). The test is described as follows: ITC. (In general: Isothermal titration calorimetry measures the heat released or taken up as one component is titrated into another.)
Test [2] has the same target. The test is described as follows: fluorescence titration (FT).
Test [3] concerns the target T1, VASP-EVH1 domain (UniProt P50552 1-115).
T1 construct: domain: EVH1
The test is described as follows: ITC.

Test [4] concerns the target T1, VASP-EVH1 domain. The test is described as follows: fluorescence titration (FT).

T1 sequence (P50552 1-115 limits assumed): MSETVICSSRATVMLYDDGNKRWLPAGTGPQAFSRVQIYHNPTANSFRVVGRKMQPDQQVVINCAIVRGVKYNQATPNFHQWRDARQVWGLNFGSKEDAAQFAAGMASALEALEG
Sequence of VASP-EVH1 domain (UniProt P50552) (P50552 1-115 limits assumed): as above

In general, Kd refers to the equilibrium constant for the complex coming apart. Low readings indicate a tighter complex, high ones a looser complex. Ac-Phe(2-Cl)-PP[ProM-1]-OH (peptide): the results for the Kd with VASP-EVH1 domain [1] and in the test with VASP-EVH1 domain [2] were 14.1 µM and 3200 nM, respectively. The ΔG with VASP-EVH1 domain [1] was -27.7 kJ/mol; with VASP-EVH1 domain [2] it was -31.4 kJ/mol.
For Ac-Phe(2-Cl)-PP[ProM-9]-OH (peptide), in that order: 8 µM, 400 nM, -29.1 kJ/mol and -36.7 kJ/mol.
For the molecule Ac-Phe(2-Cl)-[ProM-2][ProM-4]-OH, in the test with VASP-EVH1 domain [1], the Kd was found to be 9.7 µM and the ΔG was -28.6 kJ/mol. For the same molecule, in the test with VASP-EVH1 domain [2], the Kd was 1600 nM and the ΔG is -33.1 kJ/mol.

B1: Ac-Phe(2-Cl)-PPPP-OH (peptide)
peptide: Ac-[Phe(2-Cl)]PPPP-OH
SMILES: CC(=O)N[C@@H](Cc1ccccc1Cl)C(=O)N1CCC[C@H]1C(=O)N1CCC[C@H]1C(=O)N1CCC[C@H]1C(=O)N1CCC[C@H]1C(=O)O
Regarding B1, in the test with VASP-EVH1 domain [3], the dissociation constant Kd was 18 µM and the ΔG was -27 kJ/mol. Moreover, in the test with VASP-EVH1 domain [4], the Kd stood at 13 µM and the ΔG was -27.8 kJ/mol.

B2: Ac-FPPPP-OH (peptide)
peptide: Ac-FPPPP-OH
notes: Starting ligand shortened to the FPPPP core motif; also called FPPPP core motif ligand
In the test with VASP-EVH1 domain [3], B2 had an equilibrium dissociation constant (Kd) of 1300 µM and a ΔG of -16.5 kJ/mol. Besides, in the test with VASP-EVH1 domain [4], binding was characterised by a dissociation constant (Kd) of 780 µM and the ΔG is -17.7 kJ/mol.
